The results in this text go back to patent US20250186597A1, “TARGETED IMMUNE ACTIVATION WITH IL-18 IMMUNOCYTOKINES” (BRIGHT PEAK THERAPEUTICS AG, priority 2023, published 2025).

The target in one assay is T1, human IL-18BP (Homo sapiens, UniProt O95998).
T1 construct: His
T1 sequence (O95998 31-194): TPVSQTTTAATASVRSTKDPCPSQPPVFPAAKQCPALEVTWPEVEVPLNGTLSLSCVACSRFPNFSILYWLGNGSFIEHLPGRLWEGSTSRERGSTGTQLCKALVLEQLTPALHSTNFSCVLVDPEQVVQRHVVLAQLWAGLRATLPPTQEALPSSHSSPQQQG
The assay can be described thus: IL-18BP binding alphaLISA assay (Example 4, used in Example 22B). The settings on record: IL-18BP AlphaLISA. The method, then:
A human IL-18BP AlphaLISA Assay Kit is used to determine the binding affinity of each immunocytokine and IL-18 variant for IL-18BP, which detected the presence of free form IL-18BP.
Sixteen three-fold serial dilutions of IL-18 analytes are prepared in aMEM medium supplemented with 20% FCS, Glutamax, and 25 µM β-mercaptoethanol in the presence of 5 ng/mL of His-tagged human IL-18BP. Final IL-18 analytes concentration range from 2778 nM to […].
After 1 hr incubation at room temperature, free IL-18BP levels are measured using a […]. In a 384 well OPTIplate, 5 μL of 5× Anti-IL-18BP acceptor beads are added to 7.5 μL of an IL-18/IL-18BP mix. After 30 min incubation at room temperature with shaking, 5 μL of biotinylated Anti-IL-18BP antibodies are added to each well. The plate is incubated further for 1 hr at room temperature. Under subdued light, 12.5 μL of 2× streptavidin (SA) donor beads are pipetted into each well, and the wells are incubated with shaking for an additional 30 min at room temperature. The AlphaLisa signal is then measured on an Enspire plate reader with 680 and 615 nm as excitation and emission wavelengths, respectively. The dissociation constant (KD) is calculated based on a variable slope, four parameter analysis using GraphPad PRISM software.
An IL-18 binding protein AiphaLISA experiment substantially as described in Example 4 was performed on IL-18 polypeptide which can be incorporated into immunocytokine compositions as provided herein to assess ability to bind to IL-181BP. It is expected that the IL-18 polypeptides provided below would behave analogously to C086 (SEQ ID NO: 30) when incorporated into an immunocytokine composition as those otherwise provided herein.
For orientation: In Alpha technology, singlet oxygen from a donor bead excites a nearby acceptor bead.

In another assay the test system is NK-92 cells. Briefly: IFNγ induction cellular assay in NK-92 cells (Example 4, used in Example 22C). Type of assay: cell-based, human. The following applies: IFNg stimulation in NK92 cells. The method, then:
The ability of immunocytokines and IL-18 polypeptides provided herein are assessed for ability to induce IFN[…] in a cellular assay according to the protocol below.
The NK cell line NK-92 derived from a patient with lymphoma (ATCC® CRL-2407™) is cultured in aMEM medium supplemented with 20% FCS, Glutamax, 25 µM B-mercaptoethanol, and 100 IU/mL of recombinant human IL-2.
On the day of experiment, cells are harvested and washed with aMEM medium without IL-2 and containing 1 ng/mL of recombinant human IL-12. After counting, cells are seeded at 100,000 cells/well in a 384 well titer plate and incubated at 37° C./5% CO2. Sixteen 4-fold serial dilutions of IL-18 analytes are prepared in aMEM medium, and 1 ng/mL of IL-12 were added to the NK-92 cells. Final IL-18 analyte concentrations range from 56 nM to 5×10^−5 pM.
After incubating the cells for 16-20 hr at 37° C./5% CO2, 5 μL of supernatant is carefully transferred to a 384 microwell OptiPlate. IFNγ levels are measured using a human IFNγ AlphaLISA Assay Kit. Briefly, 10 μL of 2.5× AlphaLISA Anti-IFNγ acceptor beads and biotinylated antibody anti-IFNγ mix are added to the 5 μL of NK-92 supernatants. The mixtures are incubated for 1 hr at room temperature with shaking. Under subdued light, 2.5 μL of 2× streptavidin (SA) donor beads are pipetted into each well, and the wells are incubated for 30 min at room temperature with shaking. AlphaLISA signals are then measured on an EnSpire™ plate reader using 680 nm and 615 nm as excitation and emission wavelengths, respectively. Half maximal effective concentrations (EC50) are calculated based on a variable slope and four parameter analysis using GraphPad PRISM software.
The experiments described in Example 4 for determination of IFNg stimulation in NK92 cells (and inhibition by IL-18 BP) were performed substantially as described on IL-18 polypeptides in order to assess their activities and their suitability for incorporation into immunocytokine compositions. It is expected that the IL-18 polypeptides provided below would behave analagously to C086 (SEQ ID NO: 30) when incorporated into an immunocytokine composition as those otherwise provided herein.

B1: SEQ ID NO: 72: IL-18 polypeptide: N-terminal 4xG, E6K, V11I, C38A, K53A, T63A, C76A, C127A (protein)
chain: GGGGYFGKLKSKLSIIRNLNDQVLFIDQGNRPLFEDMTDSDARDNAPRTIFIISMYADSQPRGMAVAISVKCEKISTLSAENKIISFKEMNPPDNIKDTKSDIIFFQRSVPGHDNKMQFESSSYEGYFLAAEKERDLFKLILKKEDELGDRSIMFTVQNED
modifications: N-terminal 4xG
notes: IL-18 polypeptide: N-terminal 4xG, E6K, V11I, C38A, K53A, T63A, C76A, C127A
Turning to B1, the Kd – broadly, the free concentration of one partner at which half of the binding sites on the other are occupied at equilibrium, for simple one-to-one binding – in the assay with human IL-18BP is over 2800 nM.

B2: SEQ ID NO: 71: IL-18 polypeptide: N-terminal G, E6K, V11I, C38A, K53A, T63A, C76A, C127A (protein)
chain: GYFGKLKSKLSIIRNLNDQVLFIDQGNRPLFEDMTDSDARDNAPRTIFIISMYADSQPRGMAVAISVKCEKISTLSAENKIISFKEMNPPDNIKDTKSDIIFFQRSVPGHDNKMQFESSSYEGYFLAAEKERDLFKLILKKEDELGDRSIMFTVQNED
modifications: N-terminal G
notes: IL-18 polypeptide: N-terminal G, E6K, V11I, C38A, K53A, T63A, C76A, C127A
B2 came in with an equilibrium dissociation constant (Kd) in the assay with human IL-18BP of over 2800 nM.

B3: SEQ ID NO: 70: IL-18 polypeptide: N-terminal G, E6K, V11I, C38A, M51G, K53A, T63A, C76A, C127A (protein)
chain: GYFGKLKSKLSIIRNLNDQVLFIDQGNRPLFEDMTDSDARDNAPRTIFIISGYADSQPRGMAVAISVKCEKISTLSAENKIISFKEMNPPDNIKDTKSDIIFFQRSVPGHDNKMQFESSSYEGYFLAAEKERDLFKLILKKEDELGDRSIMFTVQNED
modifications: N-terminal G
notes: IL-18 polypeptide: N-terminal G, E6K, V11I, C38A, M51G, K53A, T63A, C76A, C127A
B3 had a Kd with human IL-18BP of over 2800 nM.

B4: 44 (protein)
chain: YAGKLKSKLSVIRNLNDQVLFIDQGNRPLFEDMTDSDCRDNAPRTIFIISMYADAQPRGMAVTISVKCEKISTLSCENKIISFKEMNPPDNIKDTKSDIIFFQRSVPGHDNKMQFESSSYEGYFLACEKERDLFKLILKKEDELGDRSIMFTVQNED
For B4, the Kd with human IL-18BP is over 1000 nM. Also, in the assay on NK-92 cells, the half-maximal effective concentration (EC50) – broadly, the concentration giving half of the maximal effect – was over 1000 nM.

B5: C142: IL-18 polypeptide: Y1M, E6K, V11I, C38A, K53A, T63A, C76A, C127A (protein)
chain: MFGKLKSKLSIIRNLNDQVLFIDQGNRPLFEDMTDSDARDNAPRTIFIISMYADSQPRGMAVAISVKCEKISTLSAENKIISFKEMNPPDNIKDTKSDIIFFQRSVPGHDNKMQFESSSYEGYFLAAEKERDLFKLILKKEDELGDRSIMFTVQNED
With B5, the affinity with human IL-18BP, expressed as Kd, was 2.25 nM.

B6: SEQ ID NO: 69: IL-18 polypeptide: E6K, V11I, C38A, M51G, K53A, T63A, C76A, C127A (protein)
chain: YFGKLKSKLSIIRNLNDQVLFIDQGNRPLFEDMTDSDARDNAPRTIFIISGYADSQPRGMAVAISVKCEKISTLSAENKIISFKEMNPPDNIKDTKSDIIFFQRSVPGHDNKMQFESSSYEGYFLAAEKERDLFKLILKKEDELGDRSIMFTVQNED
In the assay with human IL-18BP, B6 came in with a dissociation constant Kd of over 2800 nM.

B7: C174: IL-18 polypeptide: K8L, E6K, V11I, C38A, K53A, T63A, C76A, C127A (protein)
chain: YFGKLKSLLSIIRNLNDQVLFIDQGNRPLFEDMTDSDARDNAPRTIFIISMYADSQPRGMAVAISVKCEKISTLSAENKIISFKEMNPPDNIKDTKSDIIFFQRSVPGHDNKMQFESSSYEGYFLAAEKERDLFKLILKKEDELGDRSIMFTVQNED
As to B7, in the assay with human IL-18BP, the Kd turned out to be 0.14 nM.

B8: C179: IL-18 polypeptide: E6K, K8E, V11I, C38A, K53A, T63A, C76A, Q103R, C127A (protein)
chain: YFGKLKSELSIIRNLNDQVLFIDQGNRPLFEDMTDSDARDNAPRTIFIISMYADSQPRGMAVAISVKCEKISTLSAENKIISFKEMNPPDNIKDTKSDIIFFRRSVPGHDNKMQFESSSYEGYFLAAEKERDLFKLILKKEDELGDRSIMFTVQNED
For the molecule B8, in the assay with human IL-18BP, the Kd was over 2800 nM.

B9: 56 (protein)
chain: YFGKLKSKLSVIRNLNDQVLFIDQGNRPLFEDMTDSDSRDNAPRTIFIISMYADSQPRGMAVTISVKCEKISTLSSENKIISFKEMNPPDNIKDTKSDIIFFQRSVPGHDNKMQFESSSYEGYFLASEKERDLFKLILKKEDELGDRSIMFTVQNED
B9 gave a dissociation constant Kd with human IL-18BP of 436 nM.

B10: C178: IL-18 polypeptide: E6K, V11I, C38A, K53A, T63A, C76A, Q103R, C127A (protein)
chain: YFGKLKSKLSIIRNLNDQVLFIDQGNRPLFEDMTDSDARDNAPRTIFIISMYADSQPRGMAVAISVKCEKISTLSAENKIISFKEMNPPDNIKDTKSDIIFFRRSVPGHDNKMQFESSSYEGYFLAAEKERDLFKLILKKEDELGDRSIMFTVQNED
For the molecule B10, the Kd with human IL-18BP was over 2800 nM.

B11: C181: IL-18 polypeptide: E6K, V11I, C38A, K53A, T63A, C76A, C127A, V153E (protein)
chain: YFGKLKSKLSIIRNLNDQVLFIDQGNRPLFEDMTDSDARDNAPRTIFIISMYADSQPRGMAVAISVKCEKISTLSAENKIISFKEMNPPDNIKDTKSDIIFFQRSVPGHDNKMQFESSSYEGYFLAAEKERDLFKLILKKEDELGDRSIMFTEQNED
B11: in the assay with human IL-18BP, the Kd was over 2800 nM.

B12: C177: IL-18 polypeptide: E6K, V11I, C38A, I49R, K53A, T63A, C76A, C127A (protein)
chain: YFGKLKSKLSIIRNLNDQVLFIDQGNRPLFEDMTDSDARDNAPRTIFIRSMYADSQPRGMAVAISVKCEKISTLSAENKIISFKEMNPPDNIKDTKSDIIFFQRSVPGHDNKMQFESSSYEGYFLAAEKERDLFKLILKKEDELGDRSIMFTVQNED
As for B12, the Kd in the assay with human IL-18BP was over 2800 nM.

B13: C184: IL-18 polypeptide: E6R, V11I, C38A, K53A, T63A, C76A, C127A (protein)
chain: YFGKLRSKLSIIRNLNDQVLFIDQGNRPLFEDMTDSDARDNAPRTIFIISMYADSQPRGMAVAISVKCEKISTLSAENKIISFKEMNPPDNIKDTKSDIIFFQRSVPGHDNKMQFESSSYEGYFLAAEKERDLFKLILKKEDELGDRSIMFTVQNED
Regarding B13, in the assay with human IL-18BP, binding was characterised by a dissociation constant (Kd) of 5.46 nM.

B14: C176: IL-18 polypeptide: E6K, V11I, C38A, I49M, K53A, T63A, C76A, C127A (protein)
chain: YFGKLKSKLSIIRNLNDQVLFIDQGNRPLFEDMTDSDARDNAPRTIFIMSMYADSQPRGMAVAISVKCEKISTLSAENKIISFKEMNPPDNIKDTKSDIIFFQRSVPGHDNKMQFESSSYEGYFLAAEKERDLFKLILKKEDELGDRSIMFTVQNED
B14 showed a Kd with human IL-18BP of 25.8 nM.

B15: C182: IL-18 polypeptide: E6K, V11I, C38A, K53A, T63A, C76A, C127A, V153Y (protein)
chain: YFGKLKSKLSIIRNLNDQVLFIDQGNRPLFEDMTDSDARDNAPRTIFIISMYADSQPRGMAVAISVKCEKISTLSAENKIISFKEMNPPDNIKDTKSDIIFFQRSVPGHDNKMQFESSSYEGYFLAAEKERDLFKLILKKEDELGDRSIMFTYQNED
On to B15, for which the dissociation constant (Kd) in the assay with human IL-18BP was over 2800 nM.
